Reference: PMC7376575 (The Biochemical journal, 2020)

T1: catalytic domain of MMP-1 (UniProt P03956 106-261)
T1 sequence: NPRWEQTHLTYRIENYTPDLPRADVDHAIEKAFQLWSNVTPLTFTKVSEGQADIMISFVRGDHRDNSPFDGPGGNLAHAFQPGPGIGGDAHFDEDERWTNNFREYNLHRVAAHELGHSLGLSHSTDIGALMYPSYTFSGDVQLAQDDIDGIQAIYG

T2: biotinylated catalytic domain of MMP-1 (UniProt P03956 106-261, biotin on Lys residues)
T2 sequence: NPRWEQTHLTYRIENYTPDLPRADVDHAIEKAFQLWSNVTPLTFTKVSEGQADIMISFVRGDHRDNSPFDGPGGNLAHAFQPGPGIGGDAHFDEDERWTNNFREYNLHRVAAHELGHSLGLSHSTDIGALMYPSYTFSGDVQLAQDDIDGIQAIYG


Assays:
[1] = target: T1, catalytic domain of MMP-1; assay: enzyme inhibition assay
[2] = target: catalytic domain of MMP-3 (UniProt P08254 100-272); assay: enzyme inhibition assay
[3] = target: catalytic domain of MMP-14 (UniProt P50281 112-292); assay: enzyme inhibition assay
[4] = target: T2, biotinylated catalytic domain of MMP-1; assay: flow cytometry on cells
[5] = target: biotinylated catalytic domain of MMP-3 (UniProt P08254 100-272, biotin on Lys residues); assay: flow cytometry on cells
[6] = target: biotinylated catalytic domain of MMP-14 (UniProt P50281 112-292, biotin on Lys residues (EZ-Link sulfo-NHS-LC-LC-biotin)); assay: flow cytometry on cells

catalytic domain of MMP-3, sequence (P08254 100-272): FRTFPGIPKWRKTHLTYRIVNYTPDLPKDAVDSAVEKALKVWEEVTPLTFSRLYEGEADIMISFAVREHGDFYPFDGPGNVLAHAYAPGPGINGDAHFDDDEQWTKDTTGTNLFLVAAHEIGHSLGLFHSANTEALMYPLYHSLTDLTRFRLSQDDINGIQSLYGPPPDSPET
biotinylated catalytic domain of MMP-3, sequence (P08254 100-272): as above

Row | Binder | Ki [1] [nM] | Ki [2] [nM] | Ki [3] [nM] | Kd [4] [nM] | Kd [5] [nM] | Kd [6] [nM]
1 | N-TIMP2 V71R (domain or fragment, native disulfides) CSCSPVHPQQAFCNADVVIRAKAVSEKEVDSGNDIYGNPIKRIQYEIKQIKMFKGPEKDIEFIYTAPSSARCGVSLDVGGKKEYLIAGKAEGDGKMHITLCDFIVPWDTLSTTQKKSLNHRYQMGCE | 5.59 | 86.2 |  |  |  | 
2 | N-terminal domain of the tissue inhibitor of metalloproteinase 2, wild type (domain or fragment) CSCSPVHPQQAFCNADVVIRAKAVSEKEVDSGNDIYGNPIKRIQYEIKQIKMFKGPEKDIEFIYTAPSSAVCGVSLDVGGKKEYLIAGKAEGDGKMHITLCDFIVPWDTLSTTQKKSLNHRYQMGCE |  | 1.34 |  |  |  | 
3 | N-TIMP2 V71W (domain or fragment, native disulfides) CSCSPVHPQQAFCNADVVIRAKAVSEKEVDSGNDIYGNPIKRIQYEIKQIKMFKGPEKDIEFIYTAPSSAWCGVSLDVGGKKEYLIAGKAEGDGKMHITLCDFIVPWDTLSTTQKKSLNHRYQMGCE | 2.99 | 26.4 | 34.3 |  |  | 
4 | yeast-displayed N-TIMP2WT (domain or fragment) CSCSPVHPQQAFCNADVVIRAKAVSEKEVDSGNDIYGNPIKRIQYEIKQIKMFKGPEKDIEFIYTAPSSAVCGVSLDVGGKKEYLIAGKAEGDGKMHITLCDFIVPWDTLSTTQKKSLNHRYQMGCE |  |  |  | 3.22 | 36.2 | 48.2
5 | N-TIMP2 S68E (domain or fragment, native disulfides) CSCSPVHPQQAFCNADVVIRAKAVSEKEVDSGNDIYGNPIKRIQYEIKQIKMFKGPEKDIEFIYTAPESAVCGVSLDVGGKKEYLIAGKAEGDGKMHITLCDFIVPWDTLSTTQKKSLNHRYQMGCE | 0.249 | 4.71 | 1.42 |  |  | 
6 | N-TIMP2 T99G (domain or fragment, native disulfides) CSCSPVHPQQAFCNADVVIRAKAVSEKEVDSGNDIYGNPIKRIQYEIKQIKMFKGPEKDIEFIYTAPSSAVCGVSLDVGGKKEYLIAGKAEGDGKMHIGLCDFIVPWDTLSTTQKKSLNHRYQMGCE | 0.08 | 4.24 | 0.534 |  |  | 
7 | N-TIMP2 H97R (domain or fragment, native disulfides) CSCSPVHPQQAFCNADVVIRAKAVSEKEVDSGNDIYGNPIKRIQYEIKQIKMFKGPEKDIEFIYTAPSSAVCGVSLDVGGKKEYLIAGKAEGDGKMRITLCDFIVPWDTLSTTQKKSLNHRYQMGCE | 0.031 | 1.31 | 0.125 |  |  | 
8 | N-TIMP2 T99M (domain or fragment, native disulfides) CSCSPVHPQQAFCNADVVIRAKAVSEKEVDSGNDIYGNPIKRIQYEIKQIKMFKGPEKDIEFIYTAPSSAVCGVSLDVGGKKEYLIAGKAEGDGKMHIMLCDFIVPWDTLSTTQKKSLNHRYQMGCE | 0.085 | 8.29 | 2.05 |  |  | 
9 | N-TIMP2 T99Q (domain or fragment, native disulfides) CSCSPVHPQQAFCNADVVIRAKAVSEKEVDSGNDIYGNPIKRIQYEIKQIKMFKGPEKDIEFIYTAPSSAVCGVSLDVGGKKEYLIAGKAEGDGKMHIQLCDFIVPWDTLSTTQKKSLNHRYQMGCE | 0.099 | 3.72 | 3.92 |  |  | 
10 | N-TIMP2 S68M (domain or fragment, native disulfides) CSCSPVHPQQAFCNADVVIRAKAVSEKEVDSGNDIYGNPIKRIQYEIKQIKMFKGPEKDIEFIYTAPMSAVCGVSLDVGGKKEYLIAGKAEGDGKMHITLCDFIVPWDTLSTTQKKSLNHRYQMGCE | 0.181 | 3.29 | 2.6 |  |  | 
